The text below walks through data of the supplement of paper PMC10567573.

First the molecules themselves.
B1: WEE1 (parent)
chain: INPFTPDSLLLHSSGQCRRRKRTY
B2: SPDEF (parent)
chain: YPEDSSWAAKAPGASSREEPPEEP
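Also: lentivirally expressed fusions sorted by FACS into six bins by GFP to DsRed ratio, PSI derived from sequencing read proportions per bin multiplied by bin number.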

The variants in one series derive from B1. The series can be described thus: protein stability index of a GFP-peptide fusion (GPS, HEK-293T) (PSI 1-6); higher = more stable. The conditions noted are these: c terminus: a fixed tail appended.
On to INPFTPDSLLLHSSGQCRRRKRTM, for which the protein stability index was 3.48.

With INPFTPDSLLLHSSGQCRRRKRTD, the protein stability index was determined as 4.27.

On to INPFTPDSLLLHSSGQCRRRKRTV, for which the protein stability index amounted to 3.95.

Regarding INPFTPDSLLLHSSGQCRRRKRTW, the protein stability index was found to be 3.36.

INPFTPDSLLLHSSGQCRRRKRTQ: the protein stability index turned out to be 3.69.

As to INPFTPDSLLLHSSGQCRRRKRTS, the protein stability index came out at 4.45.

Consider INPFTPDSLLLHSSGQCRRRKRTF, for which the protein stability index is 3.12.

Turning to INPFTPDSLLLHSSGQCRRRKRTN, the protein stability index came to 3.75.

On to INPFTPDSLLLHSSGQCRRRKRTA, for which the protein stability index stood at 4.33.

Take INPFTPDSLLLHSSGQCRRRKRTL: the protein stability index was found to be 3.04.

As to INPFTPDSLLLHSSGQCRRRKRTR, the protein stability index is 4.52.

Take INPFTPDSLLLHSSGQCRRRKRTI: the protein stability index stood at 3.01.

As to INPFTPDSLLLHSSGQCRRRKRTH, the protein stability index amounted to 3.75.

Regarding INPFTPDSLLLHSSGQCRRRKRTP, the protein stability index is 3.81.

For the variant INPFTPDSLLLHSSGQCRRRKRTC, the protein stability index worked out at 3.8.

Take INPFTPDSLLLHSSGQCRRRKRTK: the protein stability index amounted to 4.27.

For the variant INPFTPDSLLLHSSGQCRRRKRLY, the protein stability index is 3.5.

As for INPFTPDSLLLHSSGQCRRRKRSY, the protein stability index was 3.93.

Consider INPFTPDSLLLHSSGQCRRRKRCY, for which the protein stability index came to 2.7.

As to INPFTPDSLLLHSSGQCRRRKRPY, the protein stability index amounted to 3.26.

With INPFTPDSLLLHSSGQCRRRKRDY, the protein stability index turned out to be 4.11.

On to INPFTPDSLLLHSSGQCRRRKRWY, for which the protein stability index stood at 2.79.

For the variant INPFTPDSLLLHSSGQCRRRKREY, the protein stability index is 3.37.

On to INPFTPDSLLLHSSGQCRRRKRKY, for which the protein stability index stood at 4.29.

For the variant INPFTPDSLLLHSSGQCRRRKRFY, the protein stability index came to 3.36.

As to INPFTPDSLLLHSSGQCRRRKRRY, the protein stability index came out at 3.56.

Turning to INPFTPDSLLLHSSGQCRRRKRGY, the protein stability index stood at 3.87.

In the case of INPFTPDSLLLHSSGQCRRRKRVY, the protein stability index stood at 3.06.

Consider INPFTPDSLLLHSSGQCRRRKRQY, for which the protein stability index was found to be 3.42.

For the variant INPFTPDSLLLHSSGQCRRRKRAY, the protein stability index stood at 3.79.

On to INPFTPDSLLLHSSGQCRRRKRMY, for which the protein stability index was determined as 3.6.

In the case of INPFTPDSLLLHSSGQCRRRKRNY, the protein stability index amounted to 3.5.

As for INPFTPDSLLLHSSGQCRRRKRYY, the protein stability index amounted to 3.38.

Turning to INPFTPDSLLLHSSGQCRRRKRHY, the protein stability index was determined as 3.7.

As for INPFTPDSLLLHSSGQCRRRKRIY, the protein stability index is 2.78.

Turning to INPFTPDSLLLHSSGQTRRRKRTY, the protein stability index amounted to 4.03.

On to INPFTPDSLLLHSSGQARRRKRTY, for which the protein stability index was determined as 3.64.

For the variant INPFTPDSLLLHSSGQMRRRKRTY, the protein stability index was 4.1.

With INPFTPDSLLLHSSGQPRRRKRTY, the protein stability index is 4.37.

For INPFTPDSLLLHSSGQERRRKRTY, the protein stability index came out at 4.09.

As for INPFTPDSLLLHSSGQKRRRKRTY, the protein stability index was 4.12.

With INPFTPDSLLLHSSGQIRRRKRTY, the protein stability index amounted to 4.01.

As to INPFTPDSLLLHSSGQQRRRKRTY, the protein stability index was 4.4.

In the case of INPFTPDSLLLHSSGQFRRRKRTY, the protein stability index turned out to be 3.06.

With INPFTPDSLLLHSSGQVRRRKRTY, the protein stability index was 3.22.

In the case of INPFTPDSLLLHSSGQDRRRKRTY, the protein stability index was found to be 4.42.

With INPFTPDSLLLHSSGQYRRRKRTY, the protein stability index amounted to 3.04.

Take INPFTPDSLLLHSSGQGRRRKRTY: the protein stability index turned out to be 3.69.

INPFTPDSLLLHSSGQLRRRKRTY: the protein stability index stood at 4.

In the case of INPFTPDSLLLHSSGQSRRRKRTY, the protein stability index was 4.

INPFTPDSLLLHSSGQRRRRKRTY: the protein stability index turned out to be 3.16.

For the variant INPFTPDSLLLHSSGQNRRRKRTY, the protein stability index came to 3.85.

For the variant INPFTPDSLLLHSSGQHRRRKRTY, the protein stability index was 3.44.

With INPFTPDSLLLHSSGQWRRRKRTY, the protein stability index was 3.35.

Regarding INPFTPDSLLLHSSGQCRRRKHTY, the protein stability index worked out at 3.5.

For INPFTPDSLLLHSSGQCRRRKPTY, the protein stability index stood at 3.23.

As for INPFTPDSLLLHSSGQCRRRKITY, the protein stability index turned out to be 3.11.

For INPFTPDSLLLHSSGQCRRRKYTY, the protein stability index turned out to be 2.87.

As for INPFTPDSLLLHSSGQCRRRKMTY, the protein stability index amounted to 3.08.

Consider INPFTPDSLLLHSSGQCRRRKETY, for which the protein stability index amounted to 3.1.

For INPFTPDSLLLHSSGQCRRRKDTY, the protein stability index stood at 3.37.

Consider INPFTPDSLLLHSSGQCRRRKATY, for which the protein stability index was found to be 3.67.

On to INPFTPDSLLLHSSGQCRRRKNTY, for which the protein stability index came to 3.91.

In the case of INPFTPDSLLLHSSGQCRRRKVTY, the protein stability index worked out at 2.8.

Take INPFTPDSLLLHSSGQCRRRKSTY: the protein stability index came out at 3.31.

For the variant INPFTPDSLLLHSSGQCRRRKFTY, the protein stability index was found to be 2.71.

For INPFTPDSLLLHSSGQCRRRKWTY, the protein stability index came out at 2.27.

Take INPFTPDSLLLHSSGQCRRRKQTY: the protein stability index was 3.19.

For the variant INPFTPDSLLLHSSGQCRRRKLTY, the protein stability index was 2.92.

On to INPFTPDSLLLHSSGQCRRRKKTY, for which the protein stability index came to 3.59.

INPFTPDSLLLHSSGQCRRRKGTY: the protein stability index turned out to be 3.55.

For the variant INPFTPDSLLLHSSGQCRRRKCTY, the protein stability index was found to be 3.17.

In the case of INPFTPDSLLLHSSGQCRRRKTTY, the protein stability index came to 3.45.

Variants of B2 are the subject of another series. The series is described as above. To be noted: c terminus: a fixed tail appended.
With MPEDSSWAAKAPGASSREEPPEEP, the protein stability index came to 5.93.

Regarding NPEDSSWAAKAPGASSREEPPEEP, the protein stability index is 5.56.

Regarding VPEDSSWAAKAPGASSREEPPEEP, the protein stability index stood at 5.76.

In the case of LPEDSSWAAKAPGASSREEPPEEP, the protein stability index was 5.79.

Regarding TPEDSSWAAKAPGASSREEPPEEP, the protein stability index came out at 5.68.

As for SPEDSSWAAKAPGASSREEPPEEP, the protein stability index was found to be 5.55.

On to HPEDSSWAAKAPGASSREEPPEEP, for which the protein stability index amounted to 5.7.

With DPEDSSWAAKAPGASSREEPPEEP, the protein stability index turned out to be 5.97.

As for CPEDSSWAAKAPGASSREEPPEEP, the protein stability index was 5.04.

With FPEDSSWAAKAPGASSREEPPEEP, the protein stability index stood at 3.03.

As for KPEDSSWAAKAPGASSREEPPEEP, the protein stability index amounted to 5.73.

For YFEDSSWAAKAPGASSREEPPEEP, the protein stability index is 5.57.

For YIEDSSWAAKAPGASSREEPPEEP, the protein stability index was determined as 2.53.

With YMEDSSWAAKAPGASSREEPPEEP, the protein stability index amounted to 5.18.

In the case of YAEDSSWAAKAPGASSREEPPEEP, the protein stability index turned out to be 1.79.

YDEDSSWAAKAPGASSREEPPEEP: the protein stability index was found to be 5.73.

Consider YCEDSSWAAKAPGASSREEPPEEP, for which the protein stability index turned out to be 1.94.

In the case of YHEDSSWAAKAPGASSREEPPEEP, the protein stability index stood at 2.25.

On to YGEDSSWAAKAPGASSREEPPEEP, for which the protein stability index was 3.9.

For the variant YNEDSSWAAKAPGASSREEPPEEP, the protein stability index worked out at 5.78.

For YKEDSSWAAKAPGASSREEPPEEP, the protein stability index amounted to 5.1.
